Test results published in the supplement of paper PMC9170038.

Test system: K4 kissing-loop RNA reporter
Test: apparent KD of K4 kissing-loop reporter; higher = weaker reporter binding
Conditions: Eterna round: R107
Protocol: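 RNA-MaP round R107: designed RNA switches with theophylline, tryptophan, arginine or FMN aptamers are transcribed on-chip within common flanks. They are titrated with a labelled K4 kissing-loop RNA reporter in RNA-MaP buffer (100 mM Tris pH 7.5, 80 mM KCl, 4 mM MgCl2), without ligand or with the indicated ligand. Median apparent KD per design.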

[1] = input ligand: theophylline 20 uM
[2] = input ligand: tryptophan 2.4 mM
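Further: bound reporter read as fluorescence of individual clusters on recovered sequencing chips by microscopy, with normalized cluster intensities fitted with a binding model.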

Sequence | apparent KD of K4 kissing-loop reporter (input ligand: FMN 200 uM) | apparent KD of K4 kissing-loop reporter (input ligand: arginine 13.2 mM) | apparent KD of K4 kissing-loop reporter (input ligand: none) | apparent KD of K4 kissing-loop reporter [1] | apparent KD of K4 kissing-loop reporter [2]
CAGAACAUAUAUAGAAACUAUAUAUGAGAUACCAGUCAAAUUAAAGACCCUUGGCAGCUCAGGCGAGUGAUGUUCGCAGGCUAAC [Astros-Gfrank-modulation#2] | 95.9 nM | 109 nM | 102 nM | 122 nM | 88.3 nM
CAUAGGAAACUAUGUAUCUCUCCGACUGAAGGAGCGCGUGAAAACGCAGGUAGGUCGCAGAAUUUAACGGAGAGUGAUGUUCUCU [Ex Arginine A K4 10] | 345 nM | 295 nM | 338 nM | 385 nM | 344 nM
CAUAGGAAACUAUGUAUCUCUCUUACUGAAGGAGCGCGUGAAAACGCAGGUAGGUCGCAGAAUUUAAUAGAGAGUGAUGUUCUCU [Ex Arginine A K4 7] | 239 nM | 202 nM | 254 nM | 244 nM | 208 nM
CAUGGUGCUCGCCAGUUGUGCGAACGGUGGGAGGAUAUGUCGCGAGACAGAAGGCCCAGUGAUGUUGGGCAGGCUCGUAGAUCGA [Mazadi] | 158 nM | 113 nM | 129 nM | 165 nM | 127 nM
CCAUCGCUAUUCGAUACCAGCUACUUAGUGAUGUUAAGUUUUUAUCCACUGUAGGUGGAAAGCCCUUGGCAGCGAAUAGUGAUGG [Theophylline B K4 26] | 442 nM | 357 nM | 474 nM | 234 nM | 417 nM
CCAUUCUGUUACGAUACCAGUCAAAGAUAUUUGAUCAAUACCCUCGCCGAGUGAUGUUCGGACCCUUGGCAGCGUCUGGGACAGG [fdxxvmullin] | 1320 nM | 437 nM | 558 nM | 427 nM | 550 nM
CCCAGUGAUGUUGGUUAAUAUAUUGAUUAACGAGGACCGGUACGGCCGCCACUCGAUAUUUCUAUAAUUAAAAGUUUUGUUUAAA [JR_SSTryptoA_Sub001] | 459 nM | 426 nM | 435 nM | 417 nM | 327 nM
CCGCGGCAAGCUCCGGAACCCAUAUUCGAUACCAGCCUUAUCACGGGCCCUUGGCAGCGAGCGUUAGUGAUGUUAGCGGCAUGGU [theeternabot_sameState_KL_Theo_A_27] | 528 nM | 256 nM | 311 nM | 276 nM | 384 nM
CCGGAGGAAGUCGCUUUUCCUGUGGCAUAGAAGGAUAUCCAAUUAAGGAGAAGGUCUAUCUGCCUUAGUGAUGUUAGGAAGUAGA [theeternabot_sameState_KL_FMN_A_23] | 172 nM | 89.1 nM | 135 nM | 162 nM | 167 nM
CCUAUCUCAUACGAUACCAGUCAAUAUAAACGAGUGAUGUUCGAAAUAAUAUGCCAUCACGACCCUUGGCAGCGUAUGGGAUAGG [Ex Theophylline B K4 6] | 158 nM | 88.8 nM | 141 nM | 214 nM | 126 nM
CCUAUCUCAUACGAUACCAGUCAAUGAGAUUUUAUCAAUGCCAUCACCGAGUGAUGUUCGGACCCUUGGCAGCGUAUGGGAUAGG [#02 K4 Theophylline B Exclusion] | 236 nM | 185 nM | 217 nM | 298 nM | 221 nM
CCUAUCUCAUACGAUACCAGUGAUUAACCAGUGAUGUUGGAAUAACCAAGGAAUAUUUAUCACCCUUGGCAGCGUAUGGGAUAGG [Ex Theophylline B K4 28] | 99.8 nM | 54.4 nM | 83.3 nM | 115 nM | 69.4 nM
CCUUGGGCACGCCCACUAGGAAGCUAGUCUAAGGAUAUCGACUGGACGAGAAGGUAGACGGACCCGAGUGAUGUUCGGACAUAGG [theeternabot_sameState_KL_FMN_A_1] | 469 nM | 260 nM | 215 nM | 179 nM | 200 nM
CGACUAUUUCGAUAGUCGAUAGACACGGAAGGAGCGGGAUUCGUCCCAGGUAGGUCGCCGUGAAGUUGAGUGAUGUUCAACGUGU [Arg A SS t13] | 160 nM | 155 nM | 155 nM | 170 nM | 147 nM
CGAGAAUGUCGACAGUCAUCGGUCCAUGCACGAGGACCGGUACGGCCGCCACUCGAGCGUGGCAGUGAUGUUGCCAGCGCACUAA [KL-XTryp-A14] | 99.6 nM | 85.1 nM | 86.3 nM | 86 nM | 100 nM
CGAGAGCUCUUGUUUGGAUGUGUUUUAUGGCGAGGACCGGUACGGCCGCCACUCGGGUGAUGUUAGUGAUGUUGAUGUAGUGAUG [qzxmullin] | 118 nM | 79.6 nM | 92.7 nM | 154 nM | 91.4 nM
CGAGUGAUGUUCGUUCGUAUAUUUGGGUGACAGGAUAUGCGGAAACGCAGAAGGGUCGCCUUCGGGUUACCCGAAUUGGCGUUUU [FMN A Model 2] | 444 nM | 402 nM | 546 nM | 461 nM | 455 nM
CGAGUGAUGUUCGUUUUUUACUCUGUUUGACAGGAUAUGCGGAAACGCAGAAGGGUCACCUUUGAGUUAGACGGAGUUAUUUUUU [Ex FMN A 21] | 409 nM | 287 nM | 322 nM | 309 nM | 290 nM
CGAUUCAUGGCGGCCGCCACUCGCGAAGCUCCCGUUACGAUGUCCGCAACAGUGAUGUUGUUGCCGAGGACCGGGCCGAGAUCCA [theeternabot_exclusion_KL_Trp_B_31] | 283 nM | 173 nM | 228 nM | 211 nM | 218 nM
CGCAAGCAGCCAGUGAUGUUGGCCGCCUUGCGAGGACCGGUACGGCCGCCACUCGAAGGCGGCUACUGGUAAACCGUCUAACGGA [Oronorenma] | 94.9 nM | 71.7 nM | 66.4 nM | 62.8 nM | 90.1 nM
CGCAGUGAUGUUGCUAUUAUUCUUGAUUAACGAGGACCGGUACGGCCGCCACUCGAUUUCUAUCUAAUUUAGUGUUAUGUUGAUU [JR_ExcTryptoA_Sub007] | 351 nM | 423 nM | 397 nM | 447 nM | 256 nM
CGCAGUGAUGUUGCUAUUAUUCUUGAUUAACGAGGACCGGUACGGCCGCCACUCGAUUUCUAUCUUAUUUUGUGUUAUGUUGAUU [JR_ExcTryptoA_Sub008] | 306 nM | 359 nM | 333 nM | 417 nM | 225 nM

Sequence | apparent KD of K4 kissing-loop reporter (input ligand: FMN 200 uM) | apparent KD of K4 kissing-loop reporter (input ligand: arginine 13.2 mM) | apparent KD of K4 kissing-loop reporter (input ligand: none) | apparent KD of K4 kissing-loop reporter [1] | apparent KD of K4 kissing-loop reporter [2]
CGCGCUGGUUGAGAGGUUGGCGCGAAUGAUACCAGUAUAUAAGAAUACCCUUGGCAGCAUAAGAAAGAUAUAGUGAUGUUGUAUA [SSTheophA.H] | 592 nM | 344 nM | 404 nM | 448 nM | 370 nM
CGCGUGGGUUUGAGAGGGUUUGUGCGAAGUGAGGAUAUUUAGGGAGAAAGAAGGCACUAUAAAAUAUAGUGAUGUUAUAUAAGGG [SSFMNA.K] | 295 nM | 226 nM | 275 nM | 225 nM | 227 nM
CGGCUCAAUCCUAGUAUUAAGAGGGAGUUGCGAGGACCGGUACGGCCGCCACUCGAAGUAGUUUGGCCAGUGAUGUUGGUCUUAC [Mabeleon] | 203 nM | 194 nM | 210 nM | 204 nM | 121 nM
CGUGAGGACCAGAGGUGAUGUAUAGUAUCGCGAGGACCGGUACGGCCGCCACUCGUGAAGAGAAAGGAGUGAUGUUCCGUAAUGG [Kazoo C10] | 343 nM | 292 nM | 304 nM | 377 nM | 110 nM
CGUGCCCGGCCGGAUACCAGUGACCCGCUGGGAACCGCGGGCCCAGAGUGAUGUUCGGGACACCCUUGGCAGCCGCCUGGGCUGC [#2 Same State - Theophylline B Attempt #14 (HarryS)] | 540 nM | 395 nM | 757 nM | 375 nM | 415 nM
CGUUUAUAGCAGGAUACCAGUGCGGAUAAGGUGCGUUAAUAGUAGAGUGAUGUUCUAAAGUACCCUUGGCAGCUUAGAGUGAGUG [#21 K4 Theophylline B Exclusion] | 202 nM | 144 nM | 145 nM | 273 nM | 108 nM
CUAGGCAACACAGGAUAUGUCCGAGUGAUGUUCGAGCCUUUCCAUUGACGAAAUUAAUGGUGGGUGACAGAAGGGUGAGUGCUGA [Xezaqu] | 354 nM | 577 nM | 620 nM | 585 nM | 432 nM
CUAUGGGUGGACGAUACCAGCUAGUGAUGUUAGCGGGUCGAGCACGCGCAUCGCCGUGGUAGCCCUUGGCAGCGUACAGAUGUUU [theeternabot_exclusion_KL_Theo_B_5] | 186 nM | 131 nM | 178 nM | 157 nM | 162 nM
CUCGACACGGGAAGGAGCGGUUGCGUGUGCCAGUGAUGUUGGAUCAGCAGACUGCCCGGUAGCCAGGUAGGUCGCCUGUGCUGAG [Esbeescexe] | 219 nM | 166 nM | 162 nM | 189 nM | 142 nM
CUCGAGUGAUGUUCGUUUAUUUAUACAGAUACCAGUGAAUUUUAACACCCUUGGCAGCUGGUUGUAUCUUUGUUUUUUACACAAG [JR_Nu_ExcTheophyA_Sub024] | 191 nM | 297 nM | 211 nM | 338 nM | 154 nM
CUUACCCAUCGGAUGGAUCAACUGCACACGAAGGAUAUACACACGGGUAGAAGGUCGGGAUUCCAGUGAUGUUGGAUGGUACGAC [theeternabot_exclusion_KL_FMN_A_29] | 87.2 nM | 96.5 nM | 91.3 nM | 98.7 nM | 74.2 nM
CUUCGUAAAGGCCCAGUGAUGUUGGGCACUCGAGGACCGGUACGGCCGCCACUCGCUCCCUAAGUCGCGCGCGUGGGCCACCGCC [Xeteoredre] | 111 nM | 110 nM | 99.4 nM | 104 nM | 113 nM
CUUGAUCGAGGAAGGAGCGGGCCGUCAUUGAGCGCAGUGAUGUUGCGGUCGACUAGUCGAGCCCAGGUAGGUCGCCUGGAGUAAG [Xeveis] | 202 nM | 159 nM | 173 nM | 160 nM | 192 nM
CUUGUACAAGUGAUGUUUGUUAUAUCCGAAGGAGCGUCGUACUAGACAGGUAGGUCGCGGAUGAAGAUAGUUUUUUUAAUAUCAU [JR_Nu_SSArginiA_Sub028] | 687 nM | 474 nM | 761 nM | 648 nM | 533 nM
CUUUGAACAUGAGUGAUGUUCAUGUCCGAAGGAGCGUGCGAAAGCACAGGUAGGUCGCGGACGUGAGUGAUGUUCAUGUGAGCGA [KL-XArg-A11 #analogue] | 196 nM | 134 nM | 161 nM | 167 nM | 154 nM
GAAAGAAAGAAUGAUACCAGACACCCGAGUGAUGUUCGGAGCAGAGUGAUGUUCUUAUAAGUCCCUUGGCAGCAUAAAAGAAAAG [whbob_SS_Theo_B_sa82] | 192 nM | 171 nM | 196 nM | 186 nM | 153 nM
GAAGGAGACAACAUCACUACUCCUUCAGACUAGGAUAUCAGGAAACUGAGAAGGAGUCUACUUGCAGUGAUGUUGCAAGAAUAAU [[F]''-[K]'-[F]'-[F1]-[F2]-[K1]-[K2]_Design2] | 167 nM | 123 nM | 146 nM | 148 nM | 118 nM
GAAGGUCAAAGACCUUCGUGCACAACUGAUACCAGUCGCGAAAGCGACCCUUGGCAGCAGGGCAGUGAUGUUGCCAGUGCACAAA [Omei KL Theo A SS A v3] | 157 nM | 166 nM | 167 nM | 124 nM | 169 nM
GACGGGCAGUGAUGUUGCCGGUCUCUUGGACGAGGACCGGUACGGCCGCCACUCGAUCUGAUGCGGGAAUUGCAUCUUUUAAUAA [Raorbirabe] | 237 nM | 115 nM | 185 nM | 194 nM | 333 nM
GAUAUAGAGGCGGCCGCCACUAGUGAUGUUAGUGAUGUUAGAUAGAGAAUAGAACAGAGGUGGGAUAGGACCGGGCCAGAUAGAG [whbob_SS_Tryp_B_w34] | 90.6 nM | 72.7 nM | 67.9 nM | 65.8 nM | 76 nM
GAUUAUUAUUCUAAAUAACAUUAUUCAGAAGGAGCGUGUUUGUACACAGGUAGGUCGCUGAAUGCUAAGCCAGUGAUGUUGGUAA [JR_SSArginiA_Sub001] | 154 nM | 206 nM | 203 nM | 191 nM | 128 nM
